B1: Omi02 (antibody, V domains shown)
VH: EVQLVESGAEVKKPGSSVKVSCKASGGTFSSYAINWVRQAPGQGLEWMGGIIPIFRTPHYAQKFQGRVTITADESTGTAYMELSSLRSEDTAVYYCASPSCGGDCPQYLKSSKLDWYFDLWGRGTLVTVSS
VL: VIWMTQSPGTLSLSPGERATLSCRASQSVSSTYLAWYQQKPGQAPRLLIYGASSRATGIPDRFSGSGSGTDFTLTISRLEPEDFAVYYCQHYGSSPLTFGQGTRLEIK
B2: Omi20 (antibody, V domains shown)
VH: EVQLVESGGGLVQPGGSLRLSCEASEITVSSNYMNWVRQAPGKGLEWVSVLFAGGTTYYADSVKGRFTISRDNSKNTLYLQMNTLRIEDTAIYYCARDLVAYGVDVWGQGTTVTVSS
VL: AIQMTQSPSFLSASVGDRVTITCRASQGISGDLAWYQQKPGKAPKLLIYAASTLQSGVPSRFSGSGSGTEFTLTISSLQPEDFATYYCQHLNSYPLTFGGGTKVEIK
B3: Omi23 (antibody, V domains shown)
VH: QVQLQESGPGLVKSSQTLSLTCTVSGDSISRGGYYWSWIRQHPGKGLEWIGSIYYSGSTYYNPSLKSRFTISVDTSKNQFSLKLSSVTAADTAVYHCAREIGFLDYWGQGTLVTVSS
VL: AIQMTQSPSSLSASVGDRVTITCRASQAISNSLAWYQQKPGKAPKLLLYAASTLESGVPSRFSGSGSGTDFTLTISSLQPEDFATYFCQQYYSTPPRTFGQGTKVDIK
B4: Omi24 (antibody, V domains shown)
VH: QVQLVESGAEVKKPGSSVKVSCKASGGTFSSHGVIWVRQAPGQGLEWMGGIIPIFPTANYAQKFQGRVTITADKPSNTAYMELSSLRSEDTAVYYCARARGEHDSVWGSFHYYFDYWGQGTLVTVSS
VL: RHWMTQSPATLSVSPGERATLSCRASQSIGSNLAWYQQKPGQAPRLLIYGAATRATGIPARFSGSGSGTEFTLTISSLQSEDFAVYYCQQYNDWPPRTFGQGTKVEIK
B5: Omi25 (antibody, V domains shown)
VH: QVQLVESGGGLVQPGRSLRLSCAASGFTFDDYAMHWVRQVPGKGLEWVSGISWNSGSIVYADFVKGRFTIARDNAKNSLFLQMNSLRAEDTALYYCAKSTALRHQYYYGMDVWGQGTTVTVSS
VL: AIQMTQSPSSLSASVGDRVTITCRTSQTISSYLNWYQQKPGKAPKLLIYDASSLQSGVPSRFSGSGYGTDFTLTISSLQPEDFATYFCQQSYNTPYAFGQGTKVEIK
B6: Omi26 (antibody, V domains shown)
VH: QVQLVQSGTEVKKPGASVKVSCKASDYTFTRFGIIWVRQAPGQGLEWMGQINPYNGNTDYAQKFQGRVTLTTDTSTNTAYMELRSLRSDDTAVYYCARSAGSPTGLDYWGQGTLVTVSS
VL: QSVVTQPPSVSEAPRQRVTISCSGSNSNIGNNAVNWYQQLPGKAPKLLVYYDDLLPSGVSDRFSGSKSGTSASLAISGLQSEDKADYYCAAWDDSLNALVFGGGTKLTVL
B7: Omi27 (antibody, V domains shown)
VH: EVQLLESGGGLVQPGGSLRLSCVASGLTVSSNYMSWVRQAPGKGLEWVSIIYPGGTTYYADSVKGRFTTSRDKSKNTLYLQMNSLRAEDTAVYYCARDLAVAGGMDVWGQGTTVTVSS
VL: EIVMTQSPSSLSASVGDRVTITCRASQGIGNDLGWYQQKPGKAPKVLIYAASNLQSGVPSRFSGSGSGTDFTLTISSLQPEDFATYYCLQDSNYPYTFGQGTKVEIK
B8: Omi28 (antibody, V domains shown)
VH: EVQLVESGGGLVQPGGSLRLSCAASGVIVSSNYMSWVRQAPGKGLQWVSVIYSGGSTFYADSVKGRFTISRDNSKNTLYLQMNSLRAEDTAVYYCARDLLEAGGTDYWGQGTLVTVSS
VL: DVVMTQSPGTLSLSPGERATLSCRASQFIGSSYLAWYQQKPGQAPRLLIYGASNRATGVPDRFSGSGSGTDFTLTISRLEPEDFAVYYCQQYGSAPGTFGQGTKVEIK
B9: Omi29 (antibody, V domains shown)
VH: QVQLVESGGGLVQPGGSLRLSCAASGLIVSRNYMSWVRQAPGKGLEWVSLIYAGGSTFYSDSVKGRFTISRHSSENTLFLQMNSLRAEDTAVYYCARDLVHYGMDVWGQGTTVTVSS
VL: NFMLTQPASVSGSPGQSITISCTGTSSDVGGYNYVSWYQQHPGKAPKLMIYDVSNRPSGVSNRFSGSNSGNTASLTISGLQAEDEADYYCSSYTSGSTWVFGGGTKLTVL
B10: Omi30 (antibody, V domains shown)
VH: EVQLVESGAEVKKPGSSVKVSCKASGGTFSRYAISWVRQAPGQGLEWMGGIIPIFDATNYAQKFHDRVTITADKSASTAYMELSSLRSDDTAVYYCARERTYCSGGTCYGGYFYYGMDVWGQGTTVTVSS
VL: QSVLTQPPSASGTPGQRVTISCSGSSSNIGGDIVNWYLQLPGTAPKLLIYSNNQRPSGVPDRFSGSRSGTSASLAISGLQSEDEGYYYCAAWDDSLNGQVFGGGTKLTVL
B11: Omi31 (antibody, V domains shown)
VH: EVQLVQSGAEVKKPGSSVKVSCKASGGTFSSYGISWVRQAPGLGLEWMGGVIPILSAKHYAQRFQGRVTITADKSTGTAYMELSSLRSEDTAVYYCARDILHHDDLWGRFYYDGMDVWGQGTTVTVSS
VL: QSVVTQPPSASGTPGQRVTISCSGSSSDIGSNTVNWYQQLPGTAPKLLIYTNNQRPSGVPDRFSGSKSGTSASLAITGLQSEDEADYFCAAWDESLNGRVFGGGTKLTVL
B12: Omi32 (antibody, V domains shown)
VH: EVQLVESGGGVVQPGRSLRLSCAASGFTFSNYGMHWVRQAPGKGLEWVAVYWYDGGNKFYADSVKGRFTISRDNSKNTLYLQMNSLRVEDTAVYYCARDTAPPDYWGQGTLVTVSS
VL: AIRMTQSPGTLSLSPGERATLSCRASQSISSSFLAWYQQKPGQAPRLLIYGASSRATGIPDRFSGSGSGTDFTLTISRLEPEDFAVYYCQQYGTSPRLTFGGGTKVDIK
B13: Omi34 (antibody, V domains shown)
VH: QVQLVQSGAEVKKPGSSVKVSCKASGGTFSSYGIRWVRQAPGQGLEWMGGIIPVFGATNYAQKFQDRVTITADKSTATAYMELSSLKSDDTAVYFCARDALSASGWTGPFDSWGQGTLVTVSS
VL: QSVLTQPPSVSGAPGQRVTISCTGSSSNIGADYDVHWYQQLPGAAPKLLIYGNNNRPSGVPDRFSGSKSGTSASLAITGLQAEDEADYYCQSYDSSQNAFYVFGTGTKVTVL
B14: Omi35 (antibody, V domains shown)
VH: QVQLVESGGGLVQPGRSLRLSCAASGFTFDDYAMHWVRQAPGKGLEWVSGSTWNSGTIDYADSVKGRFTISRDNAKNSLYLQMNSLRAEDTALYYCAKDRFRKGCSSTGCYKENYGMDVWGQGTTVTVSS
VL: QSVVTQPPSVSVAPGQTARITCGGTNIGSKSVHWYQQKPGQAPVLVVYDDSDRPSGIPERFSGSNSGNTATLTITWVEAGDEADYYCQVWDSSSDNVLFGGGTKLTVL
B15: Omi36 (antibody, V domains shown)
VH: EVQLVESGGGVVQPGGSLRLSCAASGIIVSANYMTWVRQAPGKGLEWVSVIYPGGSTFYADSVKGRFTISRDNSKNTLYLQMNSLRVEDSAVYYCARDLELAGFNDYWGQGTLVTVSS
VL: DIVMTQSPGTLSLSPGERATLSCRTSQSVSSNYLAWYQQKPGQAPRLLIYGASSRATGIPDRFSGSGSGTDFTLTISRLEPEDFAVYYCQQFGSSPRYTFGQGTKVEIK
B16: Omi38 (antibody, V domains shown)
VH: QVQLVESGAEVKKPGSSVKVSCKASGGNFNMYTISWVRQAPGRGLEWMGRFIPIANKANYAQNFPGRVTITADKSTSTVYMELRSLTSDDTAVYYCARSGSYDAFDVWGQGTMVTVSS
VL: AIRMTQSPSTLSASVGDRVTITCRASQTINSWLAWYQQKPGKAPKLLIYDASNLESGVPSRFSGSGSGTEFTLTISSLQPDDFATYYCQQYESYSPITFGQGTRLEIK
B17: Omi39 (antibody, V domains shown)
VH: QVQLVESGGVVVQPGGSLRLSCAASGFSFDDYSMHWVRQAPGKGLEWVSVIYWDGVSKYYADSVKGRFTISRDNSKNSLYLQMNSLRTEDTAVYYCAKDSEDCSSTSCYMDVWGKGTTVTVSS
VL: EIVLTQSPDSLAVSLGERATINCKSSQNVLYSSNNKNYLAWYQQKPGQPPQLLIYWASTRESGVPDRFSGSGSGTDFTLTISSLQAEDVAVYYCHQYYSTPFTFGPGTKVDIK

These binders were tested against SARS-CoV-1 S protein (SARS-CoV-1, UniProt P59594 14-1195) (assay: ELISA).
B1: no binding. B2: no binding. B3: no binding. B4: no binding. B5: no binding. B6: no binding. B7: no binding. B8: no binding. B9: no binding. B10: no binding. B11: no binding. B12: no binding. B13: no binding. B14: no binding. B15: no binding. B16: no binding. B17: no binding.
